Experimental data published in patent publication US20210032352A1 (ANTERA THERAPEUTICS, published 2021).
Substitutions are numbered along the chain they refer to.

B1: LRP6 antibody 2542 (antibody, V domains shown)
VH: EVQLVESGGGLVQPGGSLRLSCAASGFNISSYYIHWVRQAPGKGLEWVASIYSSYGYTSYADSVKGRFTISADTSKNTAYLQMNSLRAEDTAVYYCARTVRGSKKPYFSGWAMDYWGQGTLVTVSS
VL: DIQMTQSPSSLSASVGDRVTITCRASQSVSSAVAWYQQKPGKAPKLLIYSASSLYSGVPSRFSGSRSGTDFTLTISSLQPEDFATYYCQQYYWPITFGQGTKVEIK
B2: F^P - Fab (Fab, V domains shown)
VH: EVQLVESGGGLVQPGGSLRLSCAASGFNIGSSSIHWVRQAPGKGLEWVASIYSAFASTSYADSVKGRFTISADTSKNTAYLQMNSLRAEDTAVYYCARYHFPFGFALDYWGQGTLVTVSS
VL: B1 VL with Y91G, Y92V, W93Y, P94L, I95F
B3: LRP6 antibody 2539 (antibody, V domains shown)
VH: EVQLVESGGGLVQPGGSLRLSCAASGFNISYSSIHWVRQAPGKGLEWVAYISSYYGYTYYADSVKGRFTISADTSKNTAYLQMNSLRAEDTAVYYCARAHYFPWAGAMDYWGQGTLVTVSS
VL: DIQMTQSPSSLSASVGDRVTITCRASQSVSSAVAWYQQKPGKAPKLLIYSASSLYSGVPSRFSGSRSGTDFTLTISSLQPEDFATYYCQQYSWGPFTFGQGTKVEIK
notes: also called L6^3

Assays:
[1] = target: T1, mouse LRP6 ECD, Fc-tagged (mouse, UniProt O88572 20-1370); experiment: ELISA of the IgG on hLRP6, mLRP6, mLRP5, Fc and BSA
T1 construct: extracellular domain; Bought; not shown: Fc tag of the purchased fusion
T1 sequence (looked up): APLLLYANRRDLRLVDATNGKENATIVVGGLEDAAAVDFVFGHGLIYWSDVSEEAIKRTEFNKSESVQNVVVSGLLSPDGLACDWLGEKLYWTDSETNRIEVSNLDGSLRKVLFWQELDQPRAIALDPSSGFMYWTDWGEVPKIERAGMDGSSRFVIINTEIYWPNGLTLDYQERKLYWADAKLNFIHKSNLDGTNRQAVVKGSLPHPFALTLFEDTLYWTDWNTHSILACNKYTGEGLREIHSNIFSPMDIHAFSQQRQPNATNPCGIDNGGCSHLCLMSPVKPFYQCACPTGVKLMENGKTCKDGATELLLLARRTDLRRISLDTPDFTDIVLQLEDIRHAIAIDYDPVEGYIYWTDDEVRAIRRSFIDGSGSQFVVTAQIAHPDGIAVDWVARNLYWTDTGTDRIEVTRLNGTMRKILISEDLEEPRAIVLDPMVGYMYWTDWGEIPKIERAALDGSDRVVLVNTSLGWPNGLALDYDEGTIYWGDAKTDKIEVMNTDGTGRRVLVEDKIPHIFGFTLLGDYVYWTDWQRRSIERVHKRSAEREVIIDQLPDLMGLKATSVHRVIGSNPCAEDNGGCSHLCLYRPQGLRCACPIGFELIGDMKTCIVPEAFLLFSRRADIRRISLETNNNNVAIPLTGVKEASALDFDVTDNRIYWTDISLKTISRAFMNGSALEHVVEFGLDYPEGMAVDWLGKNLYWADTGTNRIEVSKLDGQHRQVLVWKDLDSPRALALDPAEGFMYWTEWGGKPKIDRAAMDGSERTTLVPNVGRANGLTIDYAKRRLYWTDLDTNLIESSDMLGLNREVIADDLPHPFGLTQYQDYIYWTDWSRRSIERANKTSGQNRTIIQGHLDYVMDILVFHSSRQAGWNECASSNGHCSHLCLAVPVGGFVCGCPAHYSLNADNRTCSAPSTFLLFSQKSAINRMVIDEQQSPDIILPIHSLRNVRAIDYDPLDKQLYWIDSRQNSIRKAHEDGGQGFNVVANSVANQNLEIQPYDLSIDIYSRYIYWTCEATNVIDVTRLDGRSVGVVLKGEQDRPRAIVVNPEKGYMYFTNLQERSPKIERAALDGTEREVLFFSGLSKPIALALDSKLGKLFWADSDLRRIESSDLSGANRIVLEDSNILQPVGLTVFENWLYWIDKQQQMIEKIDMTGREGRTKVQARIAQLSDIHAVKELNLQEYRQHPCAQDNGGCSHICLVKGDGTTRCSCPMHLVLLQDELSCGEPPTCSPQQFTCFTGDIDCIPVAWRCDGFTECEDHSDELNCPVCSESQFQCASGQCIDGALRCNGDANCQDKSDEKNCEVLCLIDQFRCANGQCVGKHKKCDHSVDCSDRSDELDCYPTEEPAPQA

85BSA = target: T2, 85BSA (Bos taurus, UniProt P02769); experiment: as above
T2 construct: also called bovine serum albumin
T2 sequence (P02769 25-607 limits assumed): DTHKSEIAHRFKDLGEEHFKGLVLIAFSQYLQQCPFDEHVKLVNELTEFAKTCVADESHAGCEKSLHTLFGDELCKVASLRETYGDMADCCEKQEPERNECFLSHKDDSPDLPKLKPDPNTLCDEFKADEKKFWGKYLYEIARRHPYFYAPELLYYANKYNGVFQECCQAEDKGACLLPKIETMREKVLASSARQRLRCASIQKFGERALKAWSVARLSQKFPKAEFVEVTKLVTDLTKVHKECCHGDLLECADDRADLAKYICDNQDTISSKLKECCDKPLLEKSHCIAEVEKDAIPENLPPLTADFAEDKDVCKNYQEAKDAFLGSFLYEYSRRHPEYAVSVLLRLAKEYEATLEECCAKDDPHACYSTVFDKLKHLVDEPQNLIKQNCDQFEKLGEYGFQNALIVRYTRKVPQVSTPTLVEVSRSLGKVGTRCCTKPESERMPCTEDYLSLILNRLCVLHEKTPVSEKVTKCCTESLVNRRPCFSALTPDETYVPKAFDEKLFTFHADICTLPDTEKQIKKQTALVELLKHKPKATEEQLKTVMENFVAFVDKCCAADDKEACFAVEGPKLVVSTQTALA

[2] = target: T3, mouse LRP5 ECD, Fc-tagged (mouse, UniProt Q91VN0 31-1383); experiment: as above
T3 construct: extracellular domain; Bought; not shown: Fc tag of the purchased fusion
T3 sequence (looked up): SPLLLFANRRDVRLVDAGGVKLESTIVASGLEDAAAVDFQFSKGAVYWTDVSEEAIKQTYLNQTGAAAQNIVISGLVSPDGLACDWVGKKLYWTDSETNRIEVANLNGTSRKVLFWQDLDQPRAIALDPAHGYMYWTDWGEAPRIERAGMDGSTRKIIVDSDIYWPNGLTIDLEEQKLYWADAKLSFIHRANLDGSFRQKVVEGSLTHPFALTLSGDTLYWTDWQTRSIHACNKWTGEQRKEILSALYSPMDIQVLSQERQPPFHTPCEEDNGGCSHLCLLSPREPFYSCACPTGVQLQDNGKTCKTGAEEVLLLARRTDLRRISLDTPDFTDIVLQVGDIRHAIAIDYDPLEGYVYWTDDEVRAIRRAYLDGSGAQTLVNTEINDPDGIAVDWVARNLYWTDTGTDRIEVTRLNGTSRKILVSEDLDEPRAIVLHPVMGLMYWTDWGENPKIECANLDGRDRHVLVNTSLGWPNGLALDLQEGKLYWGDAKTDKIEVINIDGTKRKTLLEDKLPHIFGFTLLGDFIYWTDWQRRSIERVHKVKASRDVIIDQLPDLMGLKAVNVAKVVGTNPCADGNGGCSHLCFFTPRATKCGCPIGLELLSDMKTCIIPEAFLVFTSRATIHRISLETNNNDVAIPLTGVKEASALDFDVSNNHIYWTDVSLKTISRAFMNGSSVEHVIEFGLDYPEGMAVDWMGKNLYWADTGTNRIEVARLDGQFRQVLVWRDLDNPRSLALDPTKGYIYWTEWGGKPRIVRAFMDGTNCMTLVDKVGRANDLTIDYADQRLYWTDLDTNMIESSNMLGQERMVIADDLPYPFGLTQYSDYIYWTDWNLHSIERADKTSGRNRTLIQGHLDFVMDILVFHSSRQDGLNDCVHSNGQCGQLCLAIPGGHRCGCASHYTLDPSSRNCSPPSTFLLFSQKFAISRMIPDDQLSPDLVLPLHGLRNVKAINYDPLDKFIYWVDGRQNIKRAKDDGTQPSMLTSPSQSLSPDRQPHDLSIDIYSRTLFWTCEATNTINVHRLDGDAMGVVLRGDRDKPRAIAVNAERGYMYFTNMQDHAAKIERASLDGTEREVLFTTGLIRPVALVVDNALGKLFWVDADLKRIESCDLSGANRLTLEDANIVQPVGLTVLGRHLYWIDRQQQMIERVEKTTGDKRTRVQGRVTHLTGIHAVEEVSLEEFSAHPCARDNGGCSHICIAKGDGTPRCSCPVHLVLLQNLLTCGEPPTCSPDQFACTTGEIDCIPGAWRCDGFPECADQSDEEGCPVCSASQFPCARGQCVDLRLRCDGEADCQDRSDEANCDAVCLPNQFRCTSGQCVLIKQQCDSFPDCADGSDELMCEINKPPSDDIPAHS

FZD2 CRD, Fc-tagged = target: T4, FZD2 CRD, Fc-tagged (human, UniProt Q14332 24-190); experiment: kinetic table of the Fab; KD marked '**…'; the printed KD is not kd/ka of the same column; method not named for this figure
T4 construct: domain: CRD; Bought; not shown: Fc tag of the purchased fusion

FZD5 CRD, Fc-tagged = target: T5, FZD5 CRD, Fc-tagged (human, UniProt Q13467 27-167); experiment: as above
T5 construct: domain: CRD; Bought; also called FZD5 ECD; not shown: Fc tag of the purchased fusion
T5 sequence (looked up): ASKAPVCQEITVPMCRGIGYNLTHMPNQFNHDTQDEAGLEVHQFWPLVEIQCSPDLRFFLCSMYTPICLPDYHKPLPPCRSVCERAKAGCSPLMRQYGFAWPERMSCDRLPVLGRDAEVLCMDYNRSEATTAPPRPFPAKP

FZD8 CRD, Fc-tagged = target: T6, FZD8 CRD, Fc-tagged (human, UniProt Q9H461 28-158); experiment: as above
T6 construct: domain: CRD; Bought; not shown: Fc tag of the purchased fusion
T6 sequence (looked up): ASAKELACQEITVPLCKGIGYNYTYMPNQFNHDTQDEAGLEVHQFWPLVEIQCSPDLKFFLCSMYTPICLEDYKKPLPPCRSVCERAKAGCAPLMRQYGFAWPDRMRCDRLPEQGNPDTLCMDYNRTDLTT

FZD7 CRD, Fc-tagged = FZD7 CRD, Fc-tagged (human, UniProt O75084 33-185); experiment: as above
FZD1 CRD, Fc-tagged = target: T7, FZD1 CRD, Fc-tagged (human, UniProt Q9UP38 70-250); experiment: as above
T7 construct: domain: CRD; Bought; not shown: Fc tag of the purchased fusion
T7 sequence (Q9UP38 70-250): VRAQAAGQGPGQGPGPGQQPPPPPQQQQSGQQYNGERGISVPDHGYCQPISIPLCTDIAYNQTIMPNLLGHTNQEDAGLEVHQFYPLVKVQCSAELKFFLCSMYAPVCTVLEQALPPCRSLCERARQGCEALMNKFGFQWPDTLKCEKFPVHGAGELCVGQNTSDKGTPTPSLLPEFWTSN

Binder | binding result [1] | binding result (85BSA) | binding result [2] | Kd (FZD2 CRD, Fc-tagged) [nM] | Kd (FZD5 CRD, Fc-tagged) [nM] | Kd (FZD8 CRD, Fc-tagged) [nM] | Kd (FZD7 CRD, Fc-tagged) [nM] | Kd (FZD1 CRD, Fc-tagged) [nM]
B1 | binds | no binding | no binding |  |  |  |  | 
B2 |  |  |  | 0.126 | 0.11 | 0.109 | 0.142 | 0.177
B3 | binds | no binding | no binding |  |  |  |  | 
